The results in this text go back to patent US20020146711A1 (published 2002).

*: point of attachment. Biotin = O=C1N[C@H]2[C@H](CS[C@H]2CCCCC(=O)*)N1

First the molecules themselves.
T1: SH3 binding peptide: biotin-SGSGILAPPVPPRNTR-COOH (SMILES …)
T1 peptide: Biotin-SGSGILAPPVPPRNTR-OH

B1: GST fusion of MMSC2 PDZ domain 6 (P11) (other)
chain: RTINIAKGNSSLGMTVSANKDGLGMIVRSIIHGGAISRDGRIAIGDCILSINEESTISVTNAQARAMLRRHSLIGPDIKITYVP
notes: GST placed N-terminal as in pGEX vectors; also called PDZ domain number 6; not shown: glutathione S-transferase (GST) encoded by pGEX vectors (Pharmacia)
B2: GST fusion of MMSC2 PDZ domain 8 (P8) (other)
chain: HMIELEKGHSGLGLSLAGNKDRSRMSVFIVGIDPNGAAGKDGRLQIADELLEINGQILYGRSHQNASSIIKCAPSKVKIIFIR
notes: GST placed N-terminal as in pGEX vectors; also called PDZ domain number 8; not shown: glutathione S-transferase (GST) encoded by pGEX vectors (Pharmacia)
B3: GST fusion of MMSC2 PDZ domain 3 (P13) (other)
chain: FDVELTKNVQGLGITIAGYIGDKKLEPSGIFVKSITKSSAVEHDGRIQIGDQIIAVDGTNLQGFTNQQAVEVLRHTGQTVLLTLMR
notes: GST placed N-terminal as in pGEX vectors; also called PDZ domain number 3; not shown: glutathione S-transferase (GST) encoded by pGEX vectors (Pharmacia)
B4: GST fusion of MMSC2 PDZ domain 4 (P10) (other)
chain: HVSKFSENSGLGISLEATVGHHFIRSVLPEGPVGHSGKLFSGDELLEVNGITLLGENHQDVVNILKELPIEVTMVCCR
notes: GST placed N-terminal as in pGEX vectors; also called PDZ domain number 4; not shown: glutathione S-transferase (GST) encoded by pGEX vectors (Pharmacia)
B5: GST fusion of MMSC2 PDZ domain 9 (P7) (other)
chain: AVDLSSFKNVQHLELPKDQGGLGIAISEEDTLSGVIIKSLTEHGVAATDGRLKVGDQILAVDDEIVVGYPIEKFISLLKTAKMTVKLTIHA
notes: GST placed N-terminal as in pGEX vectors; also called PDZ domain number 9; not shown: glutathione S-transferase (GST) encoded by pGEX vectors (Pharmacia)
B6: GST fusion of MMSC2 PDZ domain 1 (P15) (other)
chain: EVFELLKPPSGGLGFSVVGLRSENRGELGIFVQEIQEGSVAHRDGRLKETDQILAINGQALDQTITHQQAISILQKAKDTVQLVIAR
notes: GST placed N-terminal as in pGEX vectors; Adsorbed to ELISA wells; also called PDZ domain number 1; not shown: glutathione S-transferase (GST) encoded by pGEX vectors (Pharmacia)
B7: GST fusion of MMSC2 PDZ domain 10 (P1) (other)
chain: TTIEISKGRTGLGLSIVGGSDTLLGAIIIHEVYEEGAACKDGRLWAGDQILEVNGIDLRKATHDEAINVLRQTPQRVRLTLYR
notes: GST placed N-terminal as in pGEX vectors; also called PDZ domain number 10; not shown: glutathione S-transferase (GST) encoded by pGEX vectors (Pharmacia)
B8: GST fusion of MMSC2 PDZ domain 12 (P3) (other)
chain: RTVEMKKGPTDSLGISIAGGVGSPLGDVPIFIAMMHPTGVAAQTQKLRVGDRIVTICGTSTEGMTHTQAVNLLKNASGSIEMQVVA
notes: GST placed N-terminal as in pGEX vectors; also called PDZ domain number 12; not shown: glutathione S-transferase (GST) encoded by pGEX vectors (Pharmacia)
B9: GST fusion of MMSC2 PDZ domain 13 (P4) (other)
chain: KSITLERGPDGLGFSIVGGYGSPHGDLPIYVKTVFAKGAASEDGRLKRGDQIIAVNGQSLEGVTHEEAVAILKRTKGTVTLMVLS
notes: GST placed N-terminal as in pGEX vectors; also called PDZ domain number 13; not shown: glutathione S-transferase (GST) encoded by pGEX vectors (Pharmacia)
B10: GST fusion of MMSC2 PDZ domain 7 (P9) (other)
chain: RRVELWREPSKSLGISIVGGRGMGSRLSNGEVMRGIFIKHVLEDSPAGKNGTLKPGDRIVEVDGMDLRDASHEQAVEAIRKAGNPVVFMVQS
notes: GST placed N-terminal as in pGEX vectors; also called PDZ domain number 7; not shown: glutathione S-transferase (GST) encoded by pGEX vectors (Pharmacia)
B11: MMAC1.388-403: biotin-ENEPFDEDQHTQITKV-COOH (peptide)
peptide: Biotin-ENEPFDEDQHTQITKV-OH
SMILES: CC[C@H](C)[C@H](NC(=O)[C@H](CCC(N)=O)NC(=O)[C@@H](NC(=O)[C@H](Cc1c[nH]cn1)NC(=O)[C@H](CCC(N)=O)NC(=O)[C@H](CC(=O)O)NC(=O)[C@H](CCC(=O)O)NC(=O)[C@H](CC(=O)O)NC(=O)[C@H](Cc1ccccc1)NC(=O)[C@@H]1CCCN1C(=O)[C@H](CCC(=O)O)NC(=O)[C@H](CC(N)=O)NC(=O)[C@H](CCC(=O)O)NC(=O)CCCC[C@@H]1SC[C@@H]2NC(=O)N[C@@H]21)[C@@H](C)O)C(=O)N[C@H](C(=O)N[C@@H](CCCCN)C(=O)N[C@H](C(=O)O)C(C)C)[C@@H](C)O
notes: also called MMAC1 C-terminal PDZ peptide
B12: GST fusion of MMSC2 PDZ domain 5 (P12) (other)
chain: QHIELEKGSKGLGFSILDYQDPIDPASTVIIIRSLVPGGIAEKDGRLLPGDRLMFVNDVNLENSSLEEAVEALKGAPSGTVRIGVAK
notes: GST placed N-terminal as in pGEX vectors; also called PDZ domain number 5; not shown: glutathione S-transferase (GST) encoded by pGEX vectors (Pharmacia)
B13: GST fusion of MMSC2 PDZ domain 2 (P14) (other)
chain: ETIELVNDGSGLGFGIIGGKATGVIVKTILPGGVADQHGRLCSGDHILKIGDTDLAGMSSEQVAQVLRQCGNRVKLMIAR
notes: GST placed N-terminal as in pGEX vectors; also called PDZ domain number 2; not shown: glutathione S-transferase (GST) encoded by pGEX vectors (Pharmacia)
B14: GST fusion of MMSC2 PDZ domain 11 (P2) (other)
chain: LTIELQKKPGKGLGLSIVGKRNDTGVFVSDIVKGGIADADGRLMQGDQILMVNGEDVRNATQEAVAALLKCSLGTVTLEVGR
notes: GST placed N-terminal as in pGEX vectors; also called PDZ domain number 11; not shown: glutathione S-transferase (GST) encoded by pGEX vectors (Pharmacia)

Assay [1] has as its target B11. In words: ELISA, GST-PDZ domain on plate, biotin-peptide/streptavidin-alkaline phosphatase complex in solution. The source says:
(§1) cDNAs encoding each of the MMSC2 PDZ domains (amino acid residues identified in Table 1), and any desired control proteins, were generated by PCR and subcloned as glutathione S-transferase (GST) fusions in pGEX vectors (Pharmacia). After sequencing to confirm expression construct integrity, the resulting clones were expressed in E. coli and the desired fusion proteins isolated with glutathione-agarose and recovered with glutathione elution. These fusion proteins or control proteins were then adsorbed to different wells of a 96-well ELISA plate and remaining sites blocked with BSA. Synthetic commercially synthesized peptides encoding the desired PDZ-binding domain (i.e., the 16 C-terminal amino acids of MMAC1, or the C-terminal peptide sequences of interacting proteins identified by the approach of Example 2, or the C-terminal peptide sequences identified by the approach of Example 3), or a control peptide, and biotinylated at the amino-terminus, were pre-bound to streptavidin-alkaline phosphatase in a 4:1 molar ratio. The biotinylated peptide streptavidin-alkaline phosphatase complexes were then blocked with free biotin. These pre-bound peptide streptavidin-alkaline phosphatase complexes were then incubated with the immobilized PDZ domains in wash buffer containing PBS, BSA and triton-X100. Unbound material was removed with repeated washes. Bound peptide/streptavidin-alkaline phosphatase complex was then quantitated by a colorimetric phosphatase assay read on a 96-well plate reader. The following peptides were used in the initial study:
(§2) The relative affinity of each of the 13 PDZ domains encoded by MMSC2 for an MMAC1 C-terminal PDZ peptide as measured by an ELISA assay is set forth in Table 2.
A general note: An ELISA detects its analyte on a solid surface through an enzyme-linked reagent.

The target of assay [2] is T1, SH3 binding peptide: …. The assay is described as above.
Source text: as §1, §2

Assay [3] deals with B7. In words: summary of the PDZ binding assay.
Assay [4] has as its target B9. Briefly: summary of the PDZ binding assay.
Assay [5] addresses B10. Briefly: summary of the PDZ binding assay.

On to B1, for which the A405 in assay [1] was found to be 0.016 A405; in assay [2], 0.017 A405.
The like results for B2 were, in that order, 0.006 A405 and 0.008 A405.
On the same counts, the results for B3 are 0.006 A405 and 0.008 A405.
The like results for B4 were, in that order, 0.024 A405 and 0.01 A405.
In the case of B5, the A405 in assay [1] worked out at 0.017 A405; in assay [2], 0.009 A405.
On the same counts, the results for B6 are 0.011 A405 and 0.007 A405.
For B7, the A405 in assay [1] was determined as 0.174 A405; in assay [2] it was 0.002 A405.
The like results for B8 were, in that order, 0.003 A405 and 0.011 A405.
On the same counts, the results for B9 are 0.456 A405 and 0.006 A405.
In the case of B10, the A405 is 0.667 A405 in assay [1] and 0.006 A405 in assay [2].
As to B11, the binding result in assay [3], in assay [4] and in assay [5] was “binds” each time.
As to B12, the A405 was determined as 0 A405 in assay [1] and 0.005 A405 in assay [2].
B13: the A405 came to 0.001 A405 in assay [1] and 0.006 A405 in assay [2].
Turning to B14, the A405 in assay [1] amounted to 0.012 A405; in assay [2] it was 0.009 A405.
